The target of assay [1] is T1, human PD-1 (ACRO, His tag) (human, UniProt Q15116 25-167).
T1 construct: Bought protein; not shown: His tag
Nature of the assay: ELISA, human PD-1-His coated at 1 ug/mL, anti-human IgG Fc detection, OD450. As for the experimental part: The binding of the antibody to human PD-1 was detected by ELISA. 1 μg/mL human PD-1 (ACRO, His tag) was coated on an ELISA plate overnight and blocked. Subsequently, the plate was added with gradient dilutions of the bispecific antibody and the control antibody, incubated and washed. Then, the plate was added with HRP-labeled anti-human IgG Fc secondary antibody, incubated and washed. After TMB solution was added for color development, the OD450 absorbance value was read on a microplate reader (see Table 12). […] Subsequently, the plate was added with gradient dilutions of the sample to be tested and the control antibody, incubated and washed. Then, the plated was added with HRP-labeled anti-human IgG Fc secondary antibody, incubated and washed. After TMB solution was added for color development, the OD450 absorbance value was read on a microplate reader (see Table 13). […] (The control substances were all obtained by in-house expression and purification)
Background: In an ELISA, binding on a coated surface is turned into a signal by an enzyme label.

The target in assay [2] is T2, monkey PD-1 (ACRO, His tag) (monkey, UniProt B0LAJ3 25-170).
T2 construct: Bought protein
T2 sequence (B0LAJ3 entry or part of it limits assumed, form in doubt): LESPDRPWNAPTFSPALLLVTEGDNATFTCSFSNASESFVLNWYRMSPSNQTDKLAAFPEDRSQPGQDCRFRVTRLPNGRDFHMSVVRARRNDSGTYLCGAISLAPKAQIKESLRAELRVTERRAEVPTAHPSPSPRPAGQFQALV
The assay can be described thus: ELISA, monkey PD-1-His coated at 1 ug/mL, anti-human IgG Fc detection, OD450. On the procedure: The binding of candidate molecules and competitor to antigens of different species was detected by ELISA. […] The binding of antibodies to monkey PD-1 was detected by ELISA. An ELISA plate was coated with 1 μg/mL monkey PD-1 (ACRO, His tag) overnight and blocked. Subsequently, the plate was added with gradient dilutions of the sample to be tested and the control antibody, incubated and washed. Then, the plate was added with HRP-labeled anti-human IgG Fc secondary antibody, incubated and washed. After TMB solution was added for color development, the OD450 absorbance value was read on a microplate reader (see Table 15).

In assay [3] the target is VEGF (species and construct not stated). Nature of the assay: cell-based or functional assay.
VEGF (species and construct not stated), sequence (P15692 whole entry): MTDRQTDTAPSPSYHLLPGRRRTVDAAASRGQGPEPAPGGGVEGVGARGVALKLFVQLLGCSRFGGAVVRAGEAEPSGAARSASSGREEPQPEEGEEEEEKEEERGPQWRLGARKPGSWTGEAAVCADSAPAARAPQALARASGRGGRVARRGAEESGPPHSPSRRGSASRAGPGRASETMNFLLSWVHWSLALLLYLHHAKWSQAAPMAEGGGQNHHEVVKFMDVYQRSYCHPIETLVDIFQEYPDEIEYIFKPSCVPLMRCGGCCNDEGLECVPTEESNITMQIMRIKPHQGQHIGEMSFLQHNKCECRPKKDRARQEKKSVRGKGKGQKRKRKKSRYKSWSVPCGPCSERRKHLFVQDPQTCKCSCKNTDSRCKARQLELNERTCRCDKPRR
For assay [4], the target named is T1, human PD-1 (ACRO, His tag). Nature of the assay: bridging ELISA: human PD-1-His coated at 1 ug/mL, antibody, then biotinylated human VEGF at 50 ng/ml and streptavidin-HRP, OD450. On the procedure:
The order of the binding to VEGF and PD-1 was changed for dual ELISA detection. A 96-well ELISA plate was coated with 1 μg/mL human PD-1 (ACRO, His tag) overnight, washed and blocked for 1 hour. […] TMB solution was added for color development, and the OD450 nm absorbance value was read on a microplate reader.

In assay [5] the target is T3, human VEGF (ACRO, His tag) (human, UniProt P15692-4 27-191, limits assumed).
T3 construct: Bought protein; not shown: His tag
T3 sequence (P15692 other isoform, or with tags, fused parts or gaps limits assumed): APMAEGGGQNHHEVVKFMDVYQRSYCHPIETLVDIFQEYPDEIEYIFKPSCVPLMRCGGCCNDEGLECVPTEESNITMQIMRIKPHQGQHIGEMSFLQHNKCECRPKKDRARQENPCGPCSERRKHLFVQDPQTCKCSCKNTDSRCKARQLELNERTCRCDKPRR
Nature of the assay: ELISA, human VEGF-His coated at 50 ng/ml, anti-human IgG Fc detection, OD450.

T1 sequence (Q15116 25-167 limits assumed): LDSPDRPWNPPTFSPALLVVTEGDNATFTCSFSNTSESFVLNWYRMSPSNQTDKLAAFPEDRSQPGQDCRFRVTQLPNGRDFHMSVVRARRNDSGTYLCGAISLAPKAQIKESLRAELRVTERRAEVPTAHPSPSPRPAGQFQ

B1: #16 bispecific antibody targeting PD-1 and VEGF (bispecific antibody, human IgG1, kappa)
heavy: QVQLVQSGVEVKKPGASVKVSCKASGYTFTNYYMYWVRQAPGQGLEWMGGINPSNGGTNFNEKFKNRVTLTTDSSTTTAYMELKSLQFDDTAVYYCARRDYRFDMGFDYWGQGTTVTVSSASTKGPSVFPLAPSSKSTSGGTAALGCLVKDYFPEPVTVSWNSGALTSGVHTFPAVLQSSGLYSLSSVVTVPSSSLGTQTYICNVNHKPSNTKVDKKVEPKSCDKTHTCPPCPAPEAEGAPSVFLFPPKPKDTLMISRTPEVTCVVVDVSHEDPEVKFNWYVDGVEVHNAKTKPREEQYNSTYRVVSVLTVLHQDWLNGKEYKCKVSNKALPSSIEKTISKAKGQPREPQVYTLPPSREEMTKNQVSLTCLVKGFYPSDIAVEWESNGQPENNYKTTPPVLDSDGSFFLYSKLTVDKSRWQQGNVFSCSVMHEALHNHYTQKSLSLSPGEVQLLESGGGLVQPGGSLRLSCAASGFTFSTSTMSWYRQAPGKERELVSFITSAGATTYYADSVKGRFTMSRDNSKNTVYLQMNSLRAEDTAVYYCRALVTLWNVYWGQGTLVTVSS
light: EIVLTQSPATLSLSPGERATLSCRASKGVSTSGYSYLHWYQQKPGQAPRLLIYLASYLESGVPARFSGSGSGTDFTLTISSLEPEDFAVYYCQHSRDLPLTFGGGTKVEIKRTVAAPSVFIFPPSDEQLKSGTASVVCLLNNFYPREAKVQWKVDNALQSGNSQESVTEQDSKDSTYSLSSTLTLSKADYEKHKVYACEVTHQGLSSPVTKSFNRGEC
notes: Valence is 2+2
B1: the “TOP OD” value was determined as 2.58 OD in assay [1], 3.38 OD in assay [2], 3.65 OD in assay [4] and 1.75 OD in assay [5]. For the same molecule, the “maximum inhibition rate of HUVEC proliferation” value in assay [3] is about 60%.

B2: Strain #48 VHH (Fc fusion)
chain: EVQLLESGGGLVQPGGSLRLSCAASGFTFSTSTMSWYRQAPGKERELVSFITSAGATTYYADSVKGRFTMSRDNSKNTVYLQMNSLRAEDTAVYYCRALVTLWNVYWGQGTLVTVSS
notes: Humanized variant of #6 (Q1E+Q5L+A49S+N58Y+D65G+D74S+V(82B)S+K83R+P84A+M89V+Q108L, Kabat); not shown: A printed molecular weight of 76.46 kD and detection by anti-human IgG Fc p
Regarding B2, the “TOP OD” value in assay [5] is 3.09 OD.

The values above are taken from patent US20250145701A1 (REMEGEN SHANGHAI, published 2025).
